# Laboratory results taken from patent US20100233157A1 (published 2010).
# T1: Human Fas (CD95) on the cell surface (human, UniProt P25445 26-335)
# T1 construct: also called APO-1; TNR6_Human
# T1 sequence: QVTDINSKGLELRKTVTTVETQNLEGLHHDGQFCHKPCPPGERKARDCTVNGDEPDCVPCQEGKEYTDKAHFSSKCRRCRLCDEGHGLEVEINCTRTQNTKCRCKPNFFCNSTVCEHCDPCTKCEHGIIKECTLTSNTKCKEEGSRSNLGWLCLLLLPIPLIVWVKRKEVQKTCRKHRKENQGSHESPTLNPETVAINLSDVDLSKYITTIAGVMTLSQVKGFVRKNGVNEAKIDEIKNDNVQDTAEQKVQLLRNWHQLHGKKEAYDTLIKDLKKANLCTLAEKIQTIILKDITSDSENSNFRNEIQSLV
# T2: Rhesus macaque Fas on the cell surface (rhesus macaque, UniProt Q9BDP2 26-333)
# T2 construct: whole, on cells
# T2 sequence (looked up): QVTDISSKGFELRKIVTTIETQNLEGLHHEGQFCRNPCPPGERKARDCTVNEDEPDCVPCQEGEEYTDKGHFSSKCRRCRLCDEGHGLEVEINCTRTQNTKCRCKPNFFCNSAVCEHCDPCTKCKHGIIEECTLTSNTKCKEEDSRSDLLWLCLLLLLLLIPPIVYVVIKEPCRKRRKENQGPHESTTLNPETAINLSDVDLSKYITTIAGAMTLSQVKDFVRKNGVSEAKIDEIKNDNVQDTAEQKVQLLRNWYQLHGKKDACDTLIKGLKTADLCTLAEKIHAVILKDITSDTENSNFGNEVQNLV
# B1: F45D9-γ1 mAb (recombinant human mAb T17/B2-1G4, gamma-1 isotype) (antibody, V domains shown)
# VH: QVQLQQWGAGLLKPSETLSLICAVYGGSFSTYYWTWIRQPPGKGLEWIGEINHRGTTNYSPSLKSRVTISVDTSKNHISLNLTSVTAADTALYYCARGLLWIGEGDYGLDVWGQGTTVTVSS
# VL: DIQMTQSPSSLSASVGDRVTITCRASQGIRRWLAWYQQKPEKAPKSLIYAASSLQSGVPSRFSGSGSGTDFTLTISSLQPEDFATYYCQQYNSYPYTFGQGTKLEIKR
# notes: Whole human IgG1 (γ1fa allotype) with human kappa light chain, made in CHO DG44 cells; also called IgG1; T17/L18/B2-1G4
# Tests used:
# [1] = molecular target: T3, Common marmoset Fas on the cell surface (common marmoset (Callithrix jacchus)); test: flow cytometry on the marmoset B cell line 9601, FITC anti-human IgG secondary, MFI after subtraction of the control human γ1 staining
# T3 construct: whole, on cells
# Excerpt: (§1) Reactivity of F45D9-γ1 or F45D9-γ4 mAb with Fas molecules of various species was initially screened using primary blood cells or lymphocytes cell lines. The binding of F45D9-γ1 or F45D9-γ4 mAb was explored by immunofluoresce staining and flow cytometry analysis, in human PBMC, purified human resting T cells, activated human T cells, peripheral blood lymphocytes (PBL) derived from BALE/c mice, rat, dog and pig, and in B cell lines or PBL derived from common marmoset, cynomolgus macaque, olive baboon, rhesus macaque and chimpanzee. Resting and activated human T cells were prepared as described in Example 7. B cells lines from monkeys were obtained from Biomedical Primate Research Center (Rijswijk, The Netherlands), and were cultured in RPMI 1640 medium supplemented with 2 mM glutamax, 100 UI/mL penicillin, 100 μg/mL streptomycin and 10% fetal bovine serum, at 37° C. and 5% CO₂. After washing in PBS cells (0.2−0.4×10⁶ cells/well) were incubated in staining buffer (PBS/1% FBS) containing F45D9-γ1 or human IgG control antibodies (10-20 ug/ml) in a 96-well U-bottom plate for 30 min on ice, in a 100 ul/well volume. Cells were then washed once with staining buffer, and further incubated for 30 min on ice with 1:30 dilution of FITC-conjugated rabbit F(ab′)₂ anti-human kappa (DakoCytomation Cat. F0434) or FITC-conjugated rabbit F(ab′)₂ anti-human IgG (DakoCytomation Cat. F0056). […]
# [2] = molecular target: T1, Human Fas (CD95) on the cell surface; test: flow cytometry on the human B cell line SKW6.4, FITC anti-human IgG secondary, MFI after subtraction of the control human γ1 staining
# [3] = molecular target: T1, Human Fas (CD95) on the cell surface; test: flow cytometry on SKW6.4 cells, FITC anti-human IgG secondary, geometric MFI after background subtraction
# Procedure: Binding of F45D9-γ1 and F45D9-γ4 to the surface of Fas expressing Jurkat and SKW6.4 cells (from ATCC, Jurkat, clone E6-1, ATCC-TIB-152, Human T Leukemia cell line); SKW6.4 cells, ATCC-TIB-215, Human B lymphoblastoid cell line) was explored by immunofluorescence staining and flow cytometry analysis. Cells were cultured in RPMI 1640 medium (GIBCO, Cat. 3105205) supplemented with 2 mM glutamax (GIBCO), 100 UI/mL penicillin, 100 μg/mL streptomycin (Sigma) and 5-10% fetal bovine serum (GIBCO), at 37° C. and 5% CO₂. After washing in PBS Jurkat or SKW6.4 cells (0.2×10⁶ cells/well) were incubated in staining buffer (PBS/1% FBS) containing F45D9-γ1, F45D9-γ4 or human IgG control antibodies (Human IgG1, kappa, Sigma, Cat. I5154 or Human IgG4, kappa, Sigma, Cat. I4639) in a 96-well U-bottom plate for 30 min on ice, in a 100 ul/well volume. Cells were then washed once with staining buffer, and further incubated for 30 min on ice with 1:30 dilution of FITC-conjugated rabbit F(ab′)₂ anti-human IgG (DakoCytomation Cat. F0056). After washing and fixing with 1% formaldehyde in PBS cells were analyzed in a FACScan (Becton Dickinson, Mountain View, Calif.). The reactivity of F45D9-γ1 and F45D9-γ4 to the surface of Jurkat cells was quantified and Geometric Mean Fluorescence Intensity (MFI) after background subtraction (FIG. 1A) and histograms (FIG. 1B) are shown. […]
# [4] = molecular target: T1, Human Fas (CD95) on the cell surface; test: cell-based or functional assay
# [5] = molecular target: T2, Rhesus macaque Fas on the cell surface; test: flow cytometry histograms (FL1-H) on rhesus macaque cells (cell type not printed on the sheet), FITC anti-human kappa or FITC anti-human IgG secondary
# Excerpt: as §1
# [6] = molecular target: T3, Common marmoset Fas on the cell surface; test: flow cytometry on the marmoset B cell line 9505, FITC anti-human IgG secondary, MFI after subtraction of the control human γ1 staining
# Excerpt: as §1
binder,measurement,setting,value
B1,EC50 (read off the curve),[1],~1 µg/mL
same,EC50 (read off the curve),[2],~0.8 µg/mL
same,EC50 (read off the curve),[3],~0.4 µg/mL
same,"IC50 of inhibition of rhFasL-induced apoptosis in SKW6.4 cells (Annexin-V/PI, flow cytometry)",[4],0.2 nM
same,"IC50 of inhibition of rhFasL-induced apoptosis in activated human T cells (Annexin-V/PI, flow cytometry)",[4],0.02 nM
same,share of binding capacity on Jurkat cells at which complete blocking of FasL-induced apoptosis is achieved,[4],≥ 12.5%
same,binding result,[5],no binding
same,EC50 (read off the curve),[6],~2 µg/mL
